Target: HLA-A*02:01 (human;)
Assay: ELISA

With KIQEILTQV [IGF2BP3-001 peptide KIQEILTQV (SEQ ID NO: 1)] the Kd was 0.874 nM.

Source: US12466878 (dated 2025)
